Experimental data published in US20050170468A1 (published 2005).

How the values were obtained:
Assay in all cases: radiolabeled ligand binding assay on stably transfected BHK cells
[1] = target: T1, IL-20RA/IL-20RB heterodimeric receptor (on cells) (human, UniProt Q9UHF4 30-553; Q6UXL0 30-311)
T1 construct: Both subunits are on the same cell (COS, BHK or BaF3 transfectants, or HaCaT endogenously); also called IL-20 receptor; ZcytoR7/pDIRS1
T1 sequence 1: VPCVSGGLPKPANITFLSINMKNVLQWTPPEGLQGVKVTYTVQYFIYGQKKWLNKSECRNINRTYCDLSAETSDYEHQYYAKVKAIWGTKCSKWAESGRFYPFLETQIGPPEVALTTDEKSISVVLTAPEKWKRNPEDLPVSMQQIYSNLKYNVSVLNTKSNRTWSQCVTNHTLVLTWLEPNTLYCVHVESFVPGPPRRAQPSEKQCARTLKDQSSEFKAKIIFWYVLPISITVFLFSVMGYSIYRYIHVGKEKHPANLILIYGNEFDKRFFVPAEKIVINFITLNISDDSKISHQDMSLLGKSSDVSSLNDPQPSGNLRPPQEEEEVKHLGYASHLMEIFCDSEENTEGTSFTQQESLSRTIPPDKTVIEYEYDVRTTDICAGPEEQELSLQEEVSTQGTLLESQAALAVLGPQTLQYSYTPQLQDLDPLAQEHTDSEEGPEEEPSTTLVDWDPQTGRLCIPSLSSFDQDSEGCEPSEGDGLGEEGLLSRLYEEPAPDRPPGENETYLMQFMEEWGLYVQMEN
T1 sequence 2: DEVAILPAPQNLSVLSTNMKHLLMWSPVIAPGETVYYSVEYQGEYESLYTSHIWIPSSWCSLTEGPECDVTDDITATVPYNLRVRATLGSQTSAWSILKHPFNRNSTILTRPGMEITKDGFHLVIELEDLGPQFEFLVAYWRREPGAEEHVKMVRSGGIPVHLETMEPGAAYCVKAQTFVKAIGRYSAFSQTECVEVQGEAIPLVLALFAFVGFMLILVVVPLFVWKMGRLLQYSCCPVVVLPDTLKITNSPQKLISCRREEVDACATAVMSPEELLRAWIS
Protocol: (§1) The specificity and affinity of IL-20 for its receptor was determined using BHK cells stably transfected with IL-20RA, IL-20RB or both receptor subunits. […] Binding of ¹²⁵I-labeled IL-20 was eliminated in the presence of 100-fold excess of unlabeled IL-20 but not with 100-fold excess of the unrelated cytokine, IL-21.

[2] = target: T2, IL-20RA (full-length, on cells, without transfected IL-20RB) (human, UniProt Q9UHF4 30-553)
T2 construct: Also used as the target of the anti-IL-20RA antibody on human lung tissue, the positive control 'known with IL-20RA expression'; also called ZcytoR7; BaF3/KZ134/IL-20RA only cells
T2 sequence: T1 sequence 1
Protocol: as §1

[3] = target: T3, IL-20RB (full-length, on cells, without transfected IL-20RA) (human, UniProt Q6UXL0 30-311)
T3 construct: also called DIRS1; pDIRS1
T3 sequence: T1 sequence 2
Protocol: as §1

- Kd [1]: ~1.5 nM
- binding result [2]: no binding
- binding result [3]: no binding
B1: IL-20 (ligand)
chain: LKTLNLGSCVIATNLQEIRNGFSDIRGSVQAKDGNIDIRILRRTESLQDTKPANRCCLLRHLLRLYLDRVFKNYQTPDHYTLRKISSLANSFLTIKKDLRLCHAHMTCHCGEEAMKKYSQILSHFEKLEPQAAVVKALGELDILLQWMEETE
modifications: biotin label in Example 6; 125I label in Example 10
notes: also called Zcyto10; biotinylated IL-20 protein
